This passage reports stoichiometry N results from paper PMC2912431.

Assay [1] has as its target C28A UreGStr (Klebsiella aerogenes) (UniProt P18319). The experiment in a line: SEC. A general note: In gel filtration, larger molecules generally elute earlier.
Assay [2] has as its target Klebsiella aerogenes UreE (Klebsiella aerogenes). The experiment in a line: SEC.

Usually stoichiometry N stands for a count of units in the complex or per binding partner. Regarding “C28A UreGStr (from UniProt P18319 1-205) (natural protein)”, the stoichiometry N in assay [1] worked out at 2. In assay [2], “Klebsiella aerogenes UreE (natural protein)” had a stoichiometry N of 2.
